In data set [1] the target is T1, HA-PGBD1 (Homo sapiens, UniProt Q96JS3 1-809).
T1 sequence: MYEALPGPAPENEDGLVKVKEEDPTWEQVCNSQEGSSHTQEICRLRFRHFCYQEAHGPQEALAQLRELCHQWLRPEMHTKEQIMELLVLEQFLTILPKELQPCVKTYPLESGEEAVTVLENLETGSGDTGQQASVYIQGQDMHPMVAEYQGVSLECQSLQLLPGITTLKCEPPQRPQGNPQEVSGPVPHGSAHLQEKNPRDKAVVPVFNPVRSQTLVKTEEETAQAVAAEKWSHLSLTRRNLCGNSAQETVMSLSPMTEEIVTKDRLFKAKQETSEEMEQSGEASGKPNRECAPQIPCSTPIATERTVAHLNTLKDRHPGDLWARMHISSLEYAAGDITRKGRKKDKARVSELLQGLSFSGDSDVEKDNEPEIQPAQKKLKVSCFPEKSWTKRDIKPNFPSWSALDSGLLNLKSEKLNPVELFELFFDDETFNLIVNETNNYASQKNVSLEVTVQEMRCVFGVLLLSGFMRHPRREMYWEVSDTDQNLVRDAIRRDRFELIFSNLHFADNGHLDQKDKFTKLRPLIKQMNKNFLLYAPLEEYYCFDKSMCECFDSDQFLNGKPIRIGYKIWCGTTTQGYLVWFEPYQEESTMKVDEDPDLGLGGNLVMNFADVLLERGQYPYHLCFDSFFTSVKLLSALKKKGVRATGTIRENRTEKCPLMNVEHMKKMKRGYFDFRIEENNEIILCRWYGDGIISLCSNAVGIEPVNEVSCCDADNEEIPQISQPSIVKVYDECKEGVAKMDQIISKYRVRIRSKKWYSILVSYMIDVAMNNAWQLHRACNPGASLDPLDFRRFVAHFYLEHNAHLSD
Description: competition.

Data set [2] addresses T1, HA-PGBD1. The experiment in a line: EMSA. In general terms: In EMSA bound probe runs differently from free probe, usually more slowly.

The values below come from doi:10.1101/2021.05.19.444448.

B1: unlabelled PGBD1 oligo (competitor) (dsDNA)
DNA 1: GCTTTCAATGGAATGGAATGCCTTCC
DNA 2: GGAAGGGATTCCATTCCATTGAAAGC
In the case of B1, the binding result with HA-PGBD1 [1] is listed as “binds”.

B2: SCAN-12 / PGBD1 oligo (GS-PGBD1-UP/LOW) (dsDNA)
DNA 1: GCTTTCAATGGAATGGAATGCCTTCC
DNA 2: GGAAGGGATTCCATTCCATTGAAAGC
As to B2, the binding result in the data set with HA-PGBD1 [2] is listed as “binds”.
